B1: Pistol ribozyme (parent)
chain: GGGUCGUUGUUCCAUAAUCGCGUGGAUAUGGCACGCAAGUUUCUACCGGGCACCGUAAAUGUCCGACUGGAGCCGUUCGGGCGGCUAUAAACAGACCUCAGGCCCGAAGCGUGGCGGCACCUGCCGCCGGUGGUAAAAAAGAUCGGAAGAGCACACGUCU

Variants of: B1
Assay: aptazyme ON/OFF ratio, guanine; higher = stronger switching; co-transcriptional cleavage with and without guanine

Variant | aptazyme ON/OFF ratio
U8C G9C U11A C12G | 1.18
U7G U8C G9C U11G C12G | 1.07
U7C U8A G9U U10C U11A | 1.27
G9U U10G U11C C12A C13A | 1.34
U7A G9U U10A C12U C13U | 1.17
U8A G9A U11C C12A | 1.16
U7C U8G U10C U11A C12G C13A | 1.07
U7C U8G U10A U11A C12G | 1.08
U7A U8G G9C U10A U11C C12G C13G | 1.17
U7A U8C G9A U10A C12U C13U | 1.12
U7A U8G G9A U10C U11A C12G C13U | 1.22
U8A G9U U10C U11G C13U | 1.14
U7G U8G G9A U11C C12A C13G | 1.15
U7A G9A C12U C13G | 1.17
U7G U8G G9C U10C U11A C13U | 1.41
U7G U8G G9C U10C U11A C13G | 1.17
U7A U8G G9A U10C U11C C12A C13U | 1.04
U8G G9U U10G U11G C12U C13U | 1.18
U7G U8C G9U U10G C12A C13G | 1.11
U7G U8G G9C U10G C13U | 1.26
G9C U10G U11A C12U | 1.04
U7C U8A U10C C12G | 1.63
U8C G9U U10C U11G C12U C13U | 1.25
U7G U8G G9U U10C U11A C13G | 1.23

Variant | aptazyme ON/OFF ratio
U8G U10C U11C C12U | 1.17
U7A U8C U10C C12U | 3.63
U8A U10A U11G C12U C13U | 1.4
U8C U10C U11G C12A C13G | 1.21
U7C U8C U10A | 1.35
U7G U8G G9C U11G C12A C13U | 1.3
U7G U8G G9U U10G U11G C13U | 1.11
U10G U11C | 1.03
U7A U8A G9C U10C U11C C13G | 1.07
U8G G9A U10G C12G C13U | 1.27
U7A G9C U10A U11C | 1.04
U7A U8C G9U U10G U11A C12A C13A | 1.04
U7C U8C G9A U10A U11A C12A C13U | 1.19
U7A U10A U11A C12A | 1.11
U7G U8A G9U U10G U11C C12G | 1.1
U7C U8C G9U U10A U11G C12U C13A | 1.06
U7A U8A G9A U10C U11G C12G | 1.23
U7C U8G G9U U11G C13U | 1.21
U7G G9A U10G U11A C12U C13A | 1.1
U7C U8C G9A U11A C13A | 1.26
U8G G9U U10G U11C C12A | 1.02
U7G G9U U10G U11C C12A C13A | 1.14
U7G U8G G9U U10G U11A C12U C13G | 1.19
U7C U8C G9C U10G C12U C13U | 1.08

Variant | aptazyme ON/OFF ratio
U8C U10A U11G C12U | 1.33
U7C U8G G9U U10G C12A C13A | 1.12
U7A G9U C12G C13U | 1.3
U7A U8C G9A U10G U11G C12A | 1.11
U7A G9A U10A U11G C12G C13G | 1.44
U7A U8G U10G C13U | 1.55
U7C U8C G9A U10C | 1.45
U7A U8C G9A U10C U11G C12A C13A | 1.12
U7C U8C U10C U11C C12A C13U | 1.24
U8A U10C U11A C13G | 1.07
U7G G9U U10C C12A C13A | 1.42
U7A U8C G9C C13A | 1.07
U7A G9U U10A U11A C13A | 1.17
U7C U8A G9C C12G C13G | 1.14
U7C U8G G9A U10A U11C C12G C13U | 1.45
U7A U8G G9U U10A C13U | 1.23
U7G U8A G9C U10G U11A C12G C13G | 1.04
U7C U8C G9C U11C C13U | 1.24
U8C G9U U10C U11G C12G C13G | 1.15
U7C U8C G9U U10G U11G | 1.21
U7G U8A U11G C12A C13G | 1.37
U7G U8A U11G C12A C13A | 1.24
U8C G9C U10C U11G C12G C13G | 1.09
U8C G9A U11C C12U C13G | 1.08

Variant | aptazyme ON/OFF ratio
U7G U8A G9C U10G U11C C12U C13A | 1.05
U7C U8G U10C U11G | 2
U7A U8A G9U U10A C12A C13G | 1.24
U8A G9A U10C C12G | 1.18
U7A U10A U11G C12A | 1.13
U8C U11C C12U | 1.55
U8C U11C C12A | 1.14
U7A U8A G9A U10C U11A C12U C13G | 1.16
U8G G9C U10A U11A C13U | 1.15
U7C U8C G9C U10A U11A C13A | 1.13
U7G U8G G9U U10A U11G C12G C13U | 1.05
U7C G9U U10G U11G | 1.11
U7A G9C U10A C13A | 1.16
U7G U8C U10C U11C C12U C13G | 1.12
U7C U8A G9A U10C U11G C12U C13G | 1.27
U8C C12U | 1.49
G9A U10A U11C C12U C13A | 1.34
U7A U8C U10G U11A C12U C13A | 1.2
U8G G9U U10G U11G C13U | 1.02
U8G G9C U10A U11C C12A C13U | 1.07
U7G U8C G9A U10C U11C C12G C13U | 1.09
U7A U8C G9C U10A U11C C13A | 1.41
U7G U8G G9C C12U C13G | 1.22
U7G U8G G9U U10A U11C | 1.09

Variant | aptazyme ON/OFF ratio
U8A U11C C12A C13U | 1.38
U7G G9A U10G U11A C12G | 1.07
U7C G9U U10A U11A C12U C13U | 1.25
U7A U8G U10G U11G C12G | 1.31
U7G U8G U11G C12G C13U | 1.09
U8G G9A U10C C13G | 1.03
U7G U8A G9C U10A U11A | 1.09
U7C U8C G9C U10A U11A | 1.44
U10C | 3.69
G9U U10A U11C C12U C13U | 1.5
G9C U10G U11C C12G C13A | 1.17
U8C G9C U11A C13U | 1.07
U7A G9A U10G U11C C12U | 1.08
U7G G9U U10G C12U C13U | 1.25
U8C U10C U11G C12U C13A | 1.26
U10G U11G C12G | 1.4
U7A G9A U10C U11C C13G | 1.03
U7A G9A U10C U11G C13A | 1.22
U7G U8C G9A U10G U11C | 1.04
U7G U10C C12G C13G | 1.04
U7C U8G G9U U10G C12A | 1.15
U7C U8A G9A U10C C12A | 1.19
G9C U10G U11A C12U C13A | 1.09
U7C U8C G9C U10C C13G | 1.12

Variant | aptazyme ON/OFF ratio
U7G U8C U10C U11A C13G | 1.07
U7C U8C G9U U10A U11C C12A C13A | 1.17
U8A G9C U10G C12A C13U | 1.37
G9A U10A C12U C13U | 1.4
U7A U8G G9U U10A U11A C12A | 1.2
U8G U10C U11G C12U C13G | 1.15
U8G G9A U10A U11C C12U C13U | 1.07
U7G G9U U10G U11C C12A | 1.62
U7C U10G U11G C12U | 1.21
U7G U8G G9C U10G U11C C12G C13G | 1.05
U7C G9C U10G U11G C12G | 1.12
U8G G9U U10C U11G C12U C13A | 1.09
U7C U8C G9U U10A U11A C12G C13U | 1.11
U7A U8G G9U U10G U11A C12U C13U | 1.42
U7G U8C G9U U10G U11G C13A | 1.22
U8G G9C U10C U11C C12G | 1.06
U8C G9A U10C U11C C12G | 1.18
U7A U8A U11G C12U | 1.27
U7A U8C G9C U10A U11G C12U C13A | 1.13
U7A U8G U10A U11A C12U C13A | 1.72
U7G U8A G9U U10C U11C C12A | 1.09
U7G U8C G9A U10G U11A C12U C13U | 1.13
U7C U8C G9C U10C C12A | 1.08
U7C U8C G9C U10C C12U | 1.94

Variant | aptazyme ON/OFF ratio
U11G C12A C13G | 1.22
U8C U10A U11C | 1.02
U7G U8C U11C C12U C13G | 1.3
U7C U8G G9U U11A C12A C13G | 1.19
U7A U8G U10A U11A C12U | 1.38
U7A U8A G9U U10G U11G C12U C13U | 1.22
U7C U10C C12G | 1.28
U7A U8A G9C U10G U11C C12G C13G | 1.39
U7G U8A G9U U11G C13U | 1.07
U7G G9A U10C U11A C12A C13A | 1.11
U7C U8G G9C U10A C12G C13A | 1.2
U7A G9A U10A U11C C12G | 1.19
U7C U11G C13G | 1.03
U7G U8C U10G U11A | 1.21
U8A U10G C12U | 1.58
U8A G9C U11G C12A | 1.06
U8A G9C U11G C12U | 1.45
G9C C12A | 1.38
U7A U8A G9C U10C C12A C13U | 1.04
U7A U8C G9U U10C U11C C12A C13G | 1.18
U8G G9C U10C U11G C12A C13A | 1.08
U7A U8A U10G U11G | 1.38
U8A G9A U10A C13U | 1.2

Reference: the RNAGym collection of RNA variant scans (doi:10.1021/acssynbio.7b00057)
